{"source": "paper doi:10.1101/2025.04.04.647053", "about": "(bioRxiv, 2025)", "proteins": {"B1": {"name": "AND-1 (natural protein, H. sapiens, UniProt O75717 1-1129, looked up)", "chain": "MPATRKPMRYGHTEGHTEVCFDDSGSFIVTCGSDGDVRIWEDLDDDDPKFINVGEKAYSCALKSGKLVTAVSNNTIQVHTFPEGVPDGILTRFTTNANHVVFNGDGTKIAAGSSDFLVKIVDVMDSSQQKTFRGHDAPVLSLSFDPKDIFLASASCDGSVRVWQISDQTCAISWPLLQKCNDVINAKSICRLAWQPKSGKLLAIPVEKSVKLYRRESWSHQFDLSDNFISQTLNIVTWSPCGQYLAAGSINGLIIVWNVETKDCMERVKHEKGYAICGLAWHPTCGRISYTDAEGNLGLLENVCDPSGKTSSSKVSSRVEKDYNDLFDGDDMSNAGDFLNDNAVEIPSFSKGIINDDEDDEDLMMASGRPRQRSHILEDDENSVDISMLKTGSSLLKEEEEDGQEGSIHNLPLVTSQRPFYDGPMPTPRQKPFQSGSTPLHLTHRFMVWNSIGIIRCYNDEQDNAIDVEFHDTSIHHATHLSNTLNYTIADLSHEAILLACESTDELASKLHCLHFSSWDSSKEWIIDLPQNEDIEAICLGQGWAAAATSALLLRLFTIGGVQKEVFSLAGPVVSMAGHGEQLFIVYHRGTGFDGDQCLGVQLLELGKKKKQILHGDPLPLTRKSYLAWIGFSAEGTPCYVDSEGIVRMLNRGLGNTWTPICNTREHCKGKSDHYWVVGIHENPQQLRCIPCKGSRFPPTLPRPAVAILSFKLPYCQIATEKGQMEEQFWRSVIFHNHLDYLAKNGYEYEESTKNQATKEQQELLMKMLALSCKLEREFRCVELADLMTQNAVNLAIKYASRSRKLILAQKLSELAVEKAAELTATQVEEEEEEEDFRKKLNAGYSNTATEWSQPRFRNQVEEDAEDSGEADDEEKPEIHKPGQNSFSKSTNSSDVSAKSGAVTFSSQGRVNPFKVSASSKEPAMSMNSARSTNILDNMGKSSKKSTALSRTTNNEKSPIIKPLIPKPKPKQASAASYFQKRNSQTNKTEEVKEENLKNVLSETPAICPPQNTENQRPKTGFQMWLEENRSNILSDNPDFSDEADIIKEGMIRFRVLSTEERKVWANKAKGETASEGTEAKKRKRVVDESDETENQEEKAKENLNLSKKQKPLDFSTNQKLSAFAFKQE"}}, "biological_target": "the molecule itself", "assay": "cryo-EM structure", "data": [{"protein": "B1", "values": [{"measurement": "stoichiometry N", "value": 3}]}]}
